Consider 8 molecules from patent US20230407373A1 (priority 2020, published 2023).

In this assay the test system is HCoV-OC43 gRNA and sgRNA. The class given is binding. The conditions noted are these: for target (unweighted spectral count, OC43 Probe II capture): 36 hpi, type n_36_v, tested against no-probe control, FDR<10%.

B1: SRP72 (protein, UniProt O76094 2-671, looked up)
Signal recognition particle …: ASGGSGGVSVPALWSEVNRYGQNGDFTRALKTVNKILQINKDDVTALHCKVVCLIQNGSFKEALNVINTHTKVLANNSLSFEKAYCEYRLNRIENALKTIESANQQTDKLKELYGQVLYRLERYDECLAVYRDLVRNSQDDYDEERKTNLSAVVAAQSNWEKVVPENLGLQEGTHELCYNTACALIGQGQLNQAMKILQKAEDLCRRSLSEDTDGTEEDPQAELAIIHGQMAYILQLQGRTEEALQLYNQIIKLKPTDVGLLAVIANNIITINKDQNVFDSKKKVKLTNAEGVEFKLSKKQLQAIEFNKALLAMYTNQAEQCRKISASLQSQSPEHLLPVLIQAAQLCREKQHTKAIELLQEFSDQHPENAAEIKLTMAQLKISQGNISKACLILRSIEELKHKPGMVSALVTMYSHEEDIDSAIEVFTQAIQWYQNHQPKSPAHLSLIREAANFKLKYGRKKEAISDLQQLWKQNPKDIHTLAQLISAYSLVDPEKAKALSKHLPSSDSMSLKVDVEALENSAGATYIRKKGGKVTGDSQPKEQGQGDLKKKKKKKKGKLPKNYDPKVTPDPERWLPMRERSYYRGRKKGKKKDQIGKGTQGATAGASSELDASKTVSSPPTSPRPGSAATVSASTSNIIPPRHQKPAGAPATKKKQQQKKKKGGKGGW
Turning to B1, the “target (unweighted spectral count, OC43 Probe II capture)” value turned out to be 4.

B2: GNL3 (protein, UniProt Q9BVP2 1-549, looked up)
Guanine nucleotide-binding …: MKRPKLKKASKRMTCHKRYKIQKKVREHHRKLRKEAKKRGHKKPRKDPGVPNSAPFKEALLREAELRKQRLEELKQQQKLDRQKELEKKRKLETNPDIKPSNVEPMEKEFGLCKTENKAKSGKQNSKKLYCQELKKVIEASDVVLEVLDARDPLGCRCPQVEEAIVQSGQKKLVLILNKSDLVPKENLESWLNYLKKELPTVVFRASTKPKDKGKITKRVKAKKNAAPFRSEVCFGKEGLWKLLGGFQETCSKAIRVGVIGFPNVGKSSIINSLKQEQMCNVGVSMGLTRSMQVVPLDKQITIIDSPSFIVSPLNSSSALALRSPASIEVVKPMEAASAILSQADARQVVLKYTVPGYRNSLEFFTVLAQRRGMHQKGGIPNVEGAAKLLWSEWTGASLAYYCHPPTSWTPPPYFNESIVVDMKSGFNLEELEKNNAQSIRAIKGPHLANSILFQSSGLTNGIIEEKDIHEELPKRKERKQEEREDDKDSDQETVDEEVDENSSGMFAAEETGEALSEETTAGEQSTRSFILDKIIEEDDAYDFSTDYV
Take B2: the “target (unweighted spectral count, OC43 Probe II capture)” value worked out at 4.

B3: SNX13 (protein, UniProt Q9Y5W8 1-968, looked up)
Sorting nexin-13: MLTEASLSIWGWGSLGIVLFLITFGPFVIFYLTFYILCFVGGGLVVTLLFGKTNSEKYLEQCEHSFLPPTSPGVPKCLEEMKREARTIKIDRRLTGANIIDEPLQQVIQFSLRDYVQYWYYTLSDDESFLLEIRQTLQNALIQFATRSKEIDWQPYFTTRIVDDFGTHLRVFRKAQQKITEKDDQVKGTAEDLVDTFFEVEVEMEKEVCRDLVCTSPKDEEGFLRDLCEVLLYLLLPPGDFQNKIMRYFVREILARGILLPLINQLSDPDYINQYVIWMIRDSNCNYEAFMNIIKLSDNIGELEAVRDKAAEELQYLRSLDTAGDDINTIKNQINSLLFVKKVCDSRIQRLQSGKEINTVKLAANFGKLCTVPLDSILVDNVALQFFMDYMQQTGGQAHLFFWMTVEGYRVTAQQQLEVLLSRQRDGKHQTNQTKGLLRAAAVGIYEQYLSEKASPRVTVDDYLVAKLADTLNHEDPTPEIFDDIQRKVYELMLRDERFYPSFRQNALYVRMLAELDMLKDPSFRGSDDGDGESFNGSPTGSINLSLDDLSNVSSDDSVQLHAYISDTVYADYDPYAVAGVCNDHGKTYALYAITVHRRNLNSEEMWKTYRRYSDFHDFHMRITEQFESLSSILKLPGKKTFNNMDRDFLEKRKKDLNAYLQLLLAPEMMKASPALAHYVYDFLENKAYSKGKGDFARKMDTFVNPLRNSMRNVSNAVKSLPDSLAEGMTKMSDNMGKMSERLGQDIKQSFFKVPPLIPKTDSDPEHRRVSAQLDDNVDDNIPLRVMLLLMDEVFDLKERNQWLRRNIKNLLQQLIRATYGDTINRKIVDHVDWMTSPEQVADSVKRFRDAFWPNGILAEAVPCRDKSIRMRTRVAGKTKLLAIMPDELKHIIGAETTRKGILRVFEMFQHNQLNRRMVYVFLEGFLETLFPQYKFRELFNKLHSRSKQMQKYKQKLQTTQAPSLQKR
With B3, the “target (unweighted spectral count, OC43 Probe II capture)” value is listed as 5.

B4: UBAP2 (protein, UniProt Q5T6F2 1-1119, looked up)
Ubiquitin-associated protein 2: MMTSVSSDHCRGAREKPQISAAQSTQPQKQVVQATAEQMRLAQVIFDKNDSDFEAKVKQLMEVTGKNQDECIVALHDCNGDVNKAINILLEGNSDTTSWETVGCKKKNFAKENSENKENREKKSEKESSRGRGNNNRKGRGGNRGREFRGEENGIDCNQVDKPSDRGKRARGRGFGRGRGRGAGRFSTQGMGTFNPADYSDSTSTDVCGTKLVVWEAAQNGADEGTELASNTHNIAQDLSNKSSYGLKGAWKNSVEEWTTEDWTEDLSETKVFTASSAPAENHILPGQSIDLVALLQKPVPHSQASEANSFETSQQQGFGQALVFTNSQHNNQMAPGTGSSTAVNSCSPQSLSSVLGSGFGELAPPKMANITSSQILDQLKAPSLGQFTTTPSTQQNSTSHPTTTTSWDLKPPTSQSSVLSHLDFKSQPEPSPVLSQLSQRQQHQSQAVTVPPPGLESFPSQAKLRESTPGDSPSTVNKLLQLPSTTIENISVSVHQPQPKHIKLAKRRIPPASKIPASAVEMPGSADVTGLNVQFGALEFGSEPSLSEFGSAPSSENSNQIPISLYSKSLSEPLNTSLSMTSAVQNSTYTTSVITSCSLTSSSLNSASPVAMSSSYDQSSVHNRIPYQSPVSSSESAPGTIMNGHGGGRSQQTLDTPKTTGPPSALPSVSSLPSTTSCTALLPSTSQHTGDLTSSPLSQLSSSLSSHQSSLSAHAALSSSTSHTHASVESASSHQSSATFSTAATSVSSSASSGASLSSSMNTANSLCLGGTPASASSSSSRAAPLVTSGKAPPNLPQGVPPLLHNQYLVGPGGLLPAYPIYGYDELQMLQSRLPVDYYGIPFAAPTALASRDGSLANNPYPGDVTKFGRGDSASPAPATTPAQPQQSQSQTHHTAQQPFVNPALPPGYSYTGLPYYTGMPSAFQYGPTMFVPPASAKQHGVNLSTPTPPFQQASGYGQHGYSTGYDDLTQGTAAGDYSKGGYAGSSQAPNKSAGSGPGKGVSVSSSTTGLPDMTGSVYNKTQTFDKQGFHAGTPPPFSLPSVLGSTGPLASGAAPGYAPPPFLHILPAHQQPHSQLLHHHLPQDAQSGSGQRSQPSSLQPKSQASKPAYGNSPYWTN
B4: the “target (unweighted spectral count, OC43 Probe II capture)” value is reported as 4.

B5: C8orf33 (protein, UniProt Q9H7E9 2-229, looked up)
UPF0488 protein C8orf33: AALGHLAGEAAAAPGPGTPCASRGARLPGPVSSARNPSTVCLCPEQPTCSNADSRAHPLGDEGGTASKKQKNKKKTRNRASVANGGEKASEKLAPEEVPLSAEAQAQQLAQELAWCVEQLELGLKRQKPTPKQKEQAIGAIRTLRSKRTPLPRKRQLMHSLFGDYRAQMEAEWREALRALRAAAYSAQVQPVDGATRKKSQRVCRPRSIWRAKATLDMPDEEFRFNFF
As for B5, the “target (unweighted spectral count, OC43 Probe II capture)” value is reported as 4.

B6: EIF2A (protein, UniProt Q9BY44 1-585, looked up)
Eukaryotic translation …: MAPSTPLLTVRGSEGLYMVNGPPHFTESTVFPRESGKNCKVCIFSKDGTLFAWGNGEKVNIISVTNKGLLHSFDLLKAVCLEFSPKNTVLATWQPYTTSKDGTAGIPNLQLYDVKTGTCLKSFIQKKMQNWCPSWSEDETLCARNVNNEVHFFENNNFNTIANKLHLQKINDFVLSPGPQPYKVAVYVPGSKGAPSFVRLYQYPNFAGPHAALANKSFFKADKVTMLWNKKATAVLVIASTDVDKTGASYYGEQTLHYIATNGESAVVQLPKNGPIYDVVWNSSSTEFCAVYGFMPAKATIFNLKCDPVFDFGTGPRNAAYYSPHGHILVLAGFGNLRGQMEVWDVKNYKLISKPVASDSTYFAWCPDGEHILTATCAPRLRVNNGYKIWHYTGSILHKYDVPSNAELWQVSWQPFLDGIFPAKTITYQAVPSEVPNEEPKVATAYRPPALRNKPITNSKLHEEEPPQNMKPQSGNDKPLSKTALKNQRKHEAKKAAKQEARSDKSPDLAPTPAPQSTPRNTVSQSISGDPEIDKKIKNLKKKLKAIEQLKEQAATGKQLEKNQLEKIQKETALLQELEDLELGI
For the molecule B6, the “target (unweighted spectral count, OC43 Probe II capture)” value is 4. Further, where the note is “type n_48_v, 48 hpi, OC43 Probe II capture on infected cells”, the “target (unweighted spectral count, OC43 Probe II)” value is reported as 5. For the same molecule, where the note is “type n_48_v, 48 hpi, no-probe control on infected cells”, the “background (unweighted spectral count, no-probe control)” value came to 1.

B7: TFB1M (protein, UniProt Q8WVM0 28-346, looked up)
Dimethyladenosine transferase …: QAAKQLSQNFLLDLRLTDKIVRKAGNLTNAYVYEVGPGPGGITRSILNADVAELLVVEKDTRFIPGLQMLSDAAPGKLRIVHGDVLTFKVEKAFSESLKRPWEDDPPNVHIIGNLPFSVSTPLIIKWLENISCRDGPFVYGRTQMTLTFQKEVAERLAANTGSKQRSRLSVMAQYLCNVRHIFTIPGQAFVPKPEVDVGVVHFTPLIQPKIEQPFKLVEKVVQNVFQFRRKYCHRGLRMLFPEAQRLESTGRLLELADIDPTLRPRQLSISHFKSLCDVYRKMCDEDPQLFAYNFREELKRRKSKNEEKEEDDAENYRL
For B7, the “target (unweighted spectral count, OC43 Probe II capture)” value stood at 4.

B8: SF3B1 (protein, UniProt O75533 1-1304, looked up)
Splicing factor 3B subunit 1: MAKIAKTHEDIEAQIREIQGKKAALDEAQGVGLDSTGYYDQEIYGGSDSRFAGYVTSIAATELEDDDDDYSSSTSLLGQKKPGYHAPVALLNDIPQSTEQYDPFAEHRPPKIADREDEYKKHRRTMIISPERLDPFADGGKTPDPKMNARTYMDVMREQHLTKEEREIRQQLAEKAKAGELKVVNGAAASQPPSKRKRRWDQTADQTPGATPKKLSSWDQAETPGHTPSLRWDETPGRAKGSETPGATPGSKIWDPTPSHTPAGAATPGRGDTPGHATPGHGGATSSARKNRWDETPKTERDTPGHGSGWAETPRTDRGGDSIGETPTPGASKRKSRWDETPASQMGGSTPVLTPGKTPIGTPAMNMATPTPGHIMSMTPEQLQAWRWEREIDERNRPLSDEELDAMFPEGYKVLPPPAGYVPIRTPARKLTATPTPLGGMTGFHMQTEDRTMKSVNDQPSGNLPFLKPDDIQYFDKLLVDVDESTLSPEEQKERKIMKLLLKIKNGTPPMRKAALRQITDKAREFGAGPLFNQILPLLMSPTLEDQERHLLVKVIDRILYKLDDLVRPYVHKILVVIEPLLIDEDYYARVEGREIISNLAKAAGLATMISTMRPDIDNMDEYVRNTTARAFAVVASALGIPSLLPFLKAVCKSKKSWQARHTGIKIVQQIAILMGCAILPHLRSLVEIIEHGLVDEQQKVRTISALAIAALAEAATPYGIESFDSVLKPLWKGIRQHRGKGLAAFLKAIGYLIPLMDAEYANYYTREVMLILIREFQSPDEEMKKIVLKVVKQCCGTDGVEANYIKTEILPPFFKHFWQHRMALDRRNYRQLVDTTVELANKVGAAEIISRIVDDLKDEAEQYRKMVMETIEKIMGNLGAADIDHKLEEQLIDGILYAFQEQTTEDSVMLNGFGTVVNALGKRVKPYLPQICGTVLWRLNNKSAKVRQQAADLISRTAVVMKTCQEEKLMGHLGVVLYEYLGEEYPEVLGSILGALKAIVNVIGMHKMTPPIKDLLPRLTPILKNRHEKVQENCIDLVGRIADRGAEYVSAREWMRICFELLELLKAHKKAIRRATVNTFGYIAKAIGPHDVLATLLNNLKVQERQNRVCTTVAIAIVAETCSPFTVLPALMNEYRVPELNVQNGVLKSLSFLFEYIGEMGKDYIYAVTPLLEDALMDRDLVHRQTASAVVQHMSLGVYGFGCEDSLNHLLNYVWPNVFETSPHVIQAVMGALEGLRVAIGPCRMLQYCLQGLFHPARKVRDVYWKIYNSIYIGSQDALIAHYPRIYNDDKNTYIRYELDYIL
For the molecule B8, the “target (unweighted spectral count, OC43 Probe II capture)” value was found to be 6.
